Experimental data: publication PMC12131814

Key:
[1] = target: superfolder green fluorescent protein (sfGFP); assay: ITC
[2] = target: superfolder green fluorescent protein (sfGFP); assay: AUC
[3] = target: superfolder green fluorescent protein (sfGFP); assay: MST
[4] = target: superfolder green fluorescent protein (sfGFP); assay: MST; remark: listed apart in the source

Kd [1]: 1 nM
dH [1]: -11.1 kcal/mol
Kd [2]: 1.72 nM
stoichiometry N [2]: 1
Kd [3]: 1.52 nM
Kd [4]: 1.53 nM
B1: anti-GFP nanobody (GFP-enhancer) (VHH)
VHH: QVQLVESGGALVQPGGSLRLSCAASGFPVNRYSMRWYRQAPGKEREWVAGMSSAGDRSSYEDSVKGRFTISRDDARNTVYLQMNSLKPEDTAVYYCNVNVGFEYWGQGTQVTVSS
